Experimental data published in patent US20190376133.

Test system: T1, Pol6-67-X2 (Clostridium phage phiCPV4)
T1 sequence: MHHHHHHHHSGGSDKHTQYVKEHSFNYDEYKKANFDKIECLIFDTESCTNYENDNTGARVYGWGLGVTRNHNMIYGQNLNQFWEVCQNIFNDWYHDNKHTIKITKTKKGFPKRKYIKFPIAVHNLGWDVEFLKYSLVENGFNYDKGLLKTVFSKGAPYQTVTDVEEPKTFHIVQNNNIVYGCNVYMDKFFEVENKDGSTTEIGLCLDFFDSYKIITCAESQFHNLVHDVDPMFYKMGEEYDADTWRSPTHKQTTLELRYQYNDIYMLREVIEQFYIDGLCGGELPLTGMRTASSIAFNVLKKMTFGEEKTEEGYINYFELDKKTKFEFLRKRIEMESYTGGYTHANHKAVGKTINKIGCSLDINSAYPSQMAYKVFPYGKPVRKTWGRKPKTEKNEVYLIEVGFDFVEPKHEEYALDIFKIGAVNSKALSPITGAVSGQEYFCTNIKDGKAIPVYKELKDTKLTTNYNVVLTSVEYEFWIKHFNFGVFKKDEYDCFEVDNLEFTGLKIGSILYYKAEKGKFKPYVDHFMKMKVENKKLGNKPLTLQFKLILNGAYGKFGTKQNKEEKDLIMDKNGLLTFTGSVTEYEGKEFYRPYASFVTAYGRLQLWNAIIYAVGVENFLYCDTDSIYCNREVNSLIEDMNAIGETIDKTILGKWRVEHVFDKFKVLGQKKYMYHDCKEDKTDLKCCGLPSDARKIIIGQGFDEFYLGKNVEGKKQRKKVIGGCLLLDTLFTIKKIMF
Conditions: 5'-desthiobiotin-TEG; iSpC3 spacer between SEQ 15 and SEQ 22; 8x polymerase (26% at 1x); bound at 40 C with 1.2 uM polyphosphate nucleotides; extension 5 min at 30 C with 5 mM MgCl2, 10 uM nucleotides; % bound correlates …

ACTGCTGATCTGTTCCTGAATCGACTACTACTATCATCATACCACCTCAGCTGCACGTTAAGTGCAGCTGAGGTGG [Fluorescent Hairpin DNA template]
activity: 66 % extension
